Ends that are not written are not given here. Me3 = trimethyl on the lysine side-chain amine

Here are results for one molecule from publication PMC4623018, “Studies on the catalytic domains of multiple JmjC oxygenases using peptide substrates” (Epigenetics, 2014).

For the assay, the target named is T1, KDM4A catalytic domain (human, UniProt O75164 1-359).
T1 construct: The limits 1-359 are those of the KDM4A catalytic domain used in the activity assays; also called KDM4A (1–359); 4A(1–359); source: E. coli, purified as previously described
T1 sequence (looked up): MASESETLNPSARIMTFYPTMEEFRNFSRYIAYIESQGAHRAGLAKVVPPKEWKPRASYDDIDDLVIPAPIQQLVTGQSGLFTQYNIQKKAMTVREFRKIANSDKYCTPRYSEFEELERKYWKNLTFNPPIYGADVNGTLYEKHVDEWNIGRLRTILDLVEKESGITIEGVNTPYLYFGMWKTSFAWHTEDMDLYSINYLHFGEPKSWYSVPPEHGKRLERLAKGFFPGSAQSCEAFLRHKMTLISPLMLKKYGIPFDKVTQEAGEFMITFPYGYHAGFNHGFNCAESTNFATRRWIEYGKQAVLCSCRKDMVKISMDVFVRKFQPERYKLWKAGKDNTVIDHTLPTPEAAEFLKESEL
The assay can be described thus: crystal structure; KDM4A catalytic domain complexed with H3K27me3 peptides (25 residue and 5 residue). The settings on record: both partners purified.

B1: 5 residue H3K27me3 peptide (peptide, UniProt P68431 26-30, looked up)
peptide: ARK(Me3)SA
notes: histone H3 fragment, residues 25-29; also called H3(25–29)K27me3
On to B1, for which the binding result is given as “binds”.
